Reference: US11472875

What was measured:
[1] = molecular target: T1, CM1-CM2 substrate 2003
T1 chain: ISSGLLSGRSANPRG

[2] = molecular target: T2, CM1-CM2 substrate 2005
T2 chain: AVGLLAPPSGRSANPRG

[3] = molecular target: anti-EGFR activatable antibodies comprising substrates 2001, 2006-2010 and 2012

B1: human matriptase (protein)
chain: GSDEKDCDCGLRSFTRQARVVGGTDADEGEWPWQVSLHALGQGHICGASLISPNWLVSAAHCYIDDRGFRYSDPTQWTAFLGLHDQSQRSAPGVQERRLKRIISHPFFNDFTFDYDIALLELEKPAEYSSMVRPICLPDASHVFPAGKAIWVTGWGHTQYGGTGALILQKGEIRVINQTTCENLLPQQITPRMMCVGFLSGGVDSCQGDSGGPLSSVEADGRIFQAGVVSWGDGCAQRNKPGVYTRLPLFRDWIKENTGV
For B1, the “cleavage kinetics, fold increase as compared to substrate 2001” value [1] was “approximately a 50-fold increase”, the “cleavage kinetics, fold increase as compared to substrate 1004/LP′/0001” value [2] was “approximately a 50-fold increase” and the kcat/Km [3] was “a range of kcat/Km values ranging from 6E+02 to 2E+04”.
